According to patent US20240116985A1, “STAPLED PEPTIDES AND METHODS THEREOF” (priority 2020, published 2024):
Starred links: 1 amine or outer side, 2 acyl side, 3 side chain; linkers in the order of their positions; H or OH if unused. Positions of bridges follow the written chain, without caps; N, C: chain ends. Non-standard residues stand in square brackets, D forms with d. Primed or numbered codes have the meaning given here. PyrS2″ = (S)-3-amino-1-((pent-4-en-1-yloxy)carbonyl)pyrrolidine-3-carboxylic acid (stapling residue), C=CCCCOC(=O)N1CC[C@@](N[*:1])(C(=O)[*:2])C1; B5(4) = 2,2-bis(4-pentenyl)glycine = 2-amino-2-(pent-4-en-1-yl)hept-6-enoic acid (stitching residue), C=CCCCC(CCCC=C)(N[*:1])C(=O)[*:2]; B5(5) = 2,2-bis(4-pentenyl)glycine, 2-amino-2-(pent-4-en-1-yl)hept-6-enoic acid (stitching residue), C=CCCCC(CCCC=C)(N[*:1])C(=O)[*:2]; 5F3Me3COOHF = (S)-3-(2-amino-2-carboxyethyl)-5-(trifluoromethyl)benzoic acid, O=C([C@H](Cc1cc(C(=O)[*:3])cc(C(F)(F)F)c1)N[*:1])[*:2]; TfeGA = (S)-2-amino-3-((carboxymethyl)(2,2,2-trifluoroethyl)amino)propanoic acid, O=C([C@H](CN(CC(=O)[*:3])CC(F)(F)F)N[*:1])[*:2]; PyrS2 = (S)-3-amino-1-((pent-4-en-1-yloxy)carbonyl)pyrrolidine-3-carboxylic acid, C=CCCCOC(=O)N1CC[C@@](N[*:1])(C(=O)[*:2])C1; B5(12) = 2-amino-2-(pent-4-en-1-yl)hept-6-enoic acid (two olefin side chains), C=CCCCC(CCCC=C)(N[*:1])C(=O)[*:2]; 4F3COOHF = (S)-5-(2-amino-2-carboxyethyl)-2-fluorobenzoic acid, O=C([C@H](Cc1ccc(F)c(C(=O)[*:3])c1)N[*:1])[*:2]; PyrS2(5) = (S)-3-amino-1-((alkenyloxy)carbonyl)pyrrolidine-3-carboxylic acid, carbamate stapling residue; (CyPr)‑3SF = (S)-2-amino-3-(3-cyclopropylphenyl)propanoic acid, O=C([C@H](Cc1cccc(C2CC2)c1)N[*:1])[*:2]; B5(3) = 2,2-bis(4-pentenyl)glycine (stitching residue), C=CCCCC(CCCC=C)(N[*:1])C(=O)[*:2]; B5 = 2-amino-2-(pent-4-en-1-yl)hept-6-enoic acid, C=CCCCC(CCCC=C)(N[*:1])C(=O)[*:2]; Phe(3-Ph) = N[C@@H](Cc1cccc(-c2ccccc2)c1)C(=O)O; Phe(3-COOH) = N[C@@H](Cc1cccc(C(=O)O)c1)C(=O)O; 2F3MeF = Cc1cccc(C[C@H](N[*:1])C(=O)[*:2])c1F; Phe(2-CF3) = N[C@@H](Cc1ccccc1C(F)(F)F)C(=O)O; Ala(4-thiazolyl) = N[C@@H](Cc1cscn1)C(=O)O; Phe(2-Cl) = N[C@@H](Cc1ccccc1Cl)C(=O)O; Bta = N[C@@H](Cc1csc2ccccc12)C(=O)O; Lys(iPr) = CC(C)NCCCC[C@H](N)C(=O)O; αAllylPro = C=CC[C@@]1(C(=O)O)CCCN1; tBuAla = CC(C)(C)C[C@H](N)C(=O)O; 2Thi = N[C@@H](Cc1cccs1)C(=O)O; 3Thi = N[C@@H](Cc1ccsc1)C(=O)O; Cha = N[C@@H](CC1CCCCC1)C(=O)O; Cit = NC(=O)NCCC[C@H](N)C(=O)O; hSer = N[C@@H](CCO)C(=O)O; 34ClF = not defined here; Nle = CCCC[C@H](N)C(=O)O; Aib = CC(C)(N)C(=O)O

Experiments:
[1] = target: full-length beta-Catenin (Uniprot ID P35222) (Homo sapiens (Human)) (UniProt P35222); assay: fluorescence polarization competition against 5FAM-TCF4 10-53
Target sequence in this assay (P35222 whole entry, the tested form may be a part): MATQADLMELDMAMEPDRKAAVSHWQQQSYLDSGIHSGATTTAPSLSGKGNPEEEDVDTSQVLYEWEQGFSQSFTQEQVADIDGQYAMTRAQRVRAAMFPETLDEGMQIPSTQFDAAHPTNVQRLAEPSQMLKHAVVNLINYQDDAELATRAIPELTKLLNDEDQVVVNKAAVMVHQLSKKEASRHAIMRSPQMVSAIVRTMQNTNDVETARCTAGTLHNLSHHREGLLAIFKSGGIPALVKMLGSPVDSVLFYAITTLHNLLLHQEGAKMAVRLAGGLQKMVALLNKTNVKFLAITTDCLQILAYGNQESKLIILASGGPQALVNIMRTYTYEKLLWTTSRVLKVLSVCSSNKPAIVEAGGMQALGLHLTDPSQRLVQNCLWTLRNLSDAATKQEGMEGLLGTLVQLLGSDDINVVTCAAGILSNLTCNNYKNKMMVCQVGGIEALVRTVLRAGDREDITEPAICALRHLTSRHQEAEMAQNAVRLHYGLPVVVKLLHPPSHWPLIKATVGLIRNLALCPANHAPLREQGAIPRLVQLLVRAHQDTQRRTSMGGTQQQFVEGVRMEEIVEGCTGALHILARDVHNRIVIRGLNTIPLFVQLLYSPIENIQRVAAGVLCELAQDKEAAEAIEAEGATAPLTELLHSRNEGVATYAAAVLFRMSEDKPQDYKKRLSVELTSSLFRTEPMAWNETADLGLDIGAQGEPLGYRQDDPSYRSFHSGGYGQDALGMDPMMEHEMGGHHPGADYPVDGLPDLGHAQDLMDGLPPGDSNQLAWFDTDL

[2] = target: Bcat-Halo (UniProt P35222); assay: NanoBRET Abs IC50, Bcat-Halo/TCF4-Luc in HEK293 cells
[3] = target: full-length beta-Catenin (Uniprot ID P35222) (Homo sapiens (Human)) (UniProt P35222); assay: fluorescence polarization competition; 10 nM full-length beta-catenin + 10 nM 5FAM-TCF4(10-53), peptide titrated
Target sequence in this assay (P35222 whole entry, the tested form may be a part): as above

[4] = target: full-length beta-Catenin (Uniprot ID P35222) (Homo sapiens (Human)) (UniProt P35222); assay: FP competition; full-length beta-catenin + 5FAM-TCF4(10-53) probe
Target sequence in this assay (P35222 whole entry, the tested form may be a part): as above

[5] = target: full-length beta-Catenin (Uniprot ID P35222) (Homo sapiens (Human)) (UniProt P35222); assay: fluorescence polarization competition vs 5FAM-TCF4(10-53) on full-length beta-catenin
Target sequence in this assay (P35222 2-781 limits assumed): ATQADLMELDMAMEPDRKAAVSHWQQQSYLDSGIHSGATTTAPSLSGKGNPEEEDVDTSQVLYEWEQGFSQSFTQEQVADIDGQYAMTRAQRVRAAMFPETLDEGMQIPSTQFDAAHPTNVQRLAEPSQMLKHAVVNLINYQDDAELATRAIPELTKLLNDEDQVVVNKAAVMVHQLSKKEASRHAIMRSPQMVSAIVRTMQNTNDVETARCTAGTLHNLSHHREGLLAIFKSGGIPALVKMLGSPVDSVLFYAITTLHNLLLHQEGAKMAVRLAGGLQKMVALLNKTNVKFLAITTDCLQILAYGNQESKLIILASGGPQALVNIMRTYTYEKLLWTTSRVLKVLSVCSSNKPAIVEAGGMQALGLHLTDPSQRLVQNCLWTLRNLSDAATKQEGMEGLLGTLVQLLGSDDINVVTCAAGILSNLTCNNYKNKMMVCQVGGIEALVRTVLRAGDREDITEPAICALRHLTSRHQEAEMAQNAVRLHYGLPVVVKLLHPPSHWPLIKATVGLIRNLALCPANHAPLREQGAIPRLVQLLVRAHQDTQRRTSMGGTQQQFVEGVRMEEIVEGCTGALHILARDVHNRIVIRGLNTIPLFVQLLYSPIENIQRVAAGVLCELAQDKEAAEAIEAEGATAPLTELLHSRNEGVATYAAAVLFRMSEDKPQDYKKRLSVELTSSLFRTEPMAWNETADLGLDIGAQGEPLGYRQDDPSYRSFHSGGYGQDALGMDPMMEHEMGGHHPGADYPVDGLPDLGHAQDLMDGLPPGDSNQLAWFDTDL

[6] = target: Bcat-Halo (UniProt P35222); assay: NanoBRET Abs IC50 in HEK293 cells; competitor TCF4-Luc on Bcat-Halo
[7] = target: full-length beta-Catenin (Uniprot ID P35222) (Homo sapiens (Human)) (UniProt P35222); assay: fluorescence polarization competition, 5FAM-TCF4 10-53 probe on full-length beta-catenin
Target sequence in this assay (P35222 2-781 limits assumed): as above

[8] = target: Bcat-Halo (beta-catenin HaloTag construct expressed in HEK293 cells) (UniProt P35222); assay: NanoBRET target engagement in HEK293 cells, absolute IC50; competitor TCF4-Luc
[9] = target: full-length beta-Catenin (Uniprot ID P35222) (Homo sapiens (Human)) (UniProt P35222); assay: fluorescence polarization competition; competitor 5FAM-TCF4 10-53
Target sequence in this assay (P35222 whole entry, the tested form may be a part): as the sequence (P35222 whole entry, the tested form may be a part) above

[10] = target: full-length beta-Catenin (Uniprot ID P35222) (Homo sapiens (Human)) (UniProt P35222); assay: fluorescence polarization competition; 10 nM full-length beta-catenin with 10 nM 5FAM-TCF4 (residues 10-53) probe as competitor
Target sequence in this assay (P35222 2-781 limits assumed): as the sequence (P35222 2-781 limits assumed) above

[11] = target: full-length beta-Catenin (Uniprot ID P35222) (Homo sapiens (Human)) (UniProt P35222); assay: FP competition vs 5FAM-TCF4(10-53), full-length beta-catenin
Target sequence in this assay (P35222 2-781 limits assumed): as above

Chain of Bcat-Halo (beta-catenin HaloTag construct expressed in HEK293 cells) (P35222 whole entry): as the sequence (P35222 whole entry, the tested form may be a part) above
Chain of Bcat-Halo (P35222 whole entry): as the sequence (P35222 whole entry, the tested form may be a part) above

Binder: Ac-[αAllylPro]D[tBuAla][B5(3)]D[Phe(3-COOH)]AAFL[PyrS2″][2F3MeF][34ClF]S-NH2 (staple 1-4, 4-11; reading uncertain) [I-2218]
- IC50 [1]: 34 nM
- IC50 [2]: 5100 nM

Binder: Ac-[αAllylPro]N[Cha][B5(5)]DQ[Lys(iPr)]AFN[PyrS2″][2Thi][Bta][hSer]-NH2 (staple 1-4, 4-11) [I-2075]
- IC50 [3]: 2330 nM

Binder: Ac-[αAllylPro]D[tBuAla][B5(5)]D[Phe(3-COOH)]AAFA[PyrS2″][Phe(2-Cl)][Bta]F-NH2 (staple 1-4, 4-11) [I-2025]
- IC50 [4]: 109 nM

Binder: Ac-[αAllylPro]D[Cha][B5(4)]DDALFT[PyrS2″][Phe(2-Cl)][Bta]S-NH2 (staple 1-4, 4-11) [I-1151]
- IC50 [5]: 30 nM
- IC50 [6]: 25300 nM
- EC50 [7]: 30 nM

B1: I-2016 (peptide)
peptide: Ac-[αAllylPro]D[tBuAla][B5(4)]NTAAYN[PyrS2″][3Thi][Bta]Q-NH2
modifications: staple 1-4, 4-11; not fully specified; printed as Ac-PL3-Asp-Npg-B5-Asn-Thr-Ala-Ala-Tyr-Asn-PyrS2-3Thi-BztA-Gln-NH2
- IC50 [4]: 703 nM

Binder: Ac-[αAllylPro]N[Cha][B5(5)]DQ[Lys(iPr)]A[Ala(4-thiazolyl)]N[PyrS2″]F[Bta][hSer]-NH2 (staple 1-4, 4-11) [I-2072]
- IC50 [3]: 8260 nM

Binder: Ac-[αAllylPro]D[tBuAla][B5]D[TfeGA][Aib]GFT[PyrS2][Phe(2-Cl)][Bta]Q-NH2 (staple 1-4, 4-11) [I-1696]
- IC50 [8]: 35500 nM
- IC50 [9]: 32 nM

Binder: Ac-[αAllylPro]D[tBuAla][B5]D[TfeGA]AGFT[PyrS2][Phe(2-Cl)][Bta]Q-NH2 (staple 1-4, 4-11) [I-1694]
- IC50 [8]: 43600 nM
- IC50 [9]: 57 nM

Binder: Ac-[αAllylPro]D[tBuAla][B5(12)]DLAAFN[PyrS2][3Thi][Bta]-NH2 (staple 1-4, 4-11) [I-862]
- EC50 [10]: 123 nM
- IC50 [11]: 123 nM

Binder: Ac-[αAllylPro]D[tBuAla][B5(3)]D[Phe(3-COOH)]AAFL[PyrS2″][3Thi][34ClF]Q-NH2 (staple 1-4, 4-11; reading uncertain) [I-2216]
- IC50 [1]: 7 nM
- IC50 [2]: 3400 nM

Binder: Ac-[αAllylPro]N[Cha][B5(5)]DQ[Lys(iPr)]AFN[PyrS2″]F[Bta]-NH2 (staple 1-4, 4-11) [I-2073]
- IC50 [3]: 398 nM

Binder: Ac-[αAllylPro]D[tBuAla][B5(5)]D[4F3COOHF]QAFL[PyrS2][3Thi][Bta]A-NH2 (staple 1-4, 4-11) [I-2206]
- IC50 [1]: 7 nM
- IC50 [2]: 7100 nM

Binder: Ac-[αAllylPro]N[Cha][B5(5)]DQ[Lys(iPr)]AFN[PyrS2″][3Thi][Bta][hSer]-NH2 (staple 1-4, 4-11) [I-2074]
- IC50 [3]: 789 nM

Binder: Ac-[αAllylPro]D[tBuAla][B5]D[TfeGA][Nle]AFT[PyrS2][Phe(2-Cl)][Bta]Q-NH2 (staple 1-4, 4-11) [I-1692]
- IC50 [8]: 10400 nM
- IC50 [9]: 17 nM

B2: I-2015 (peptide)
peptide: Ac-[αAllylPro]D[tBuAla][B5(4)]NTAAYN[PyrS2″][3Thi][Bta]Q-NH2
modifications: staple 1-4, 4-11; not fully specified; printed as Ac-PL3-Asp-Npg-B5-Asn-Thr-Ala-Ala-Tyr-Asn-PyrS2-3Thi-BztA-Gln-NH2
- IC50 [4]: 522 nM

Binder: Ac-[αAllylPro]D[tBuAla][B5(3)]D[Phe(3-COOH)]AAFL[PyrS2″][(CyPr)‑3SF]FQ-NH2 (staple 1-4, 4-11) [I-2215]
- IC50 [1]: 1540 nM

Binder: Ac-[αAllylPro]D[tBuAla][B5(4)]D[Phe(3-COOH)]AAFF[PyrS2″][2F3MeF][Bta][dA]-NH2 (staple 1-4, 4-11) [I-2095]
- IC50 [3]: 78 nM

Binder: Ac-[αAllylPro]D[tBuAla][B5(4)]D[Phe(3-COOH)]AAFF[PyrS2″][Phe(2-CF3)][Bta][dQ]-NH2 (staple 1-4, 4-11) [I-2093]
- IC50 [3]: 43 nM

Binder: Ac-[αAllylPro]D[tBuAla][B5]D[Phe(3-COOH)][Aib]GFL[PyrS2][Phe(2-Cl)][Bta]Q-NH2 (staple 1-4, 4-11) [I-1689]
- IC50 [8]: 12500 nM
- IC50 [9]: 25.5 nM

Binder: Ac-[αAllylPro]D[Cha][B5(4)]DDLLFT[PyrS2″][Phe(2-Cl)][Bta]S-NH2 (staple 1-4, 4-11) [I-1152]
- IC50 [5]: 65 nM
- IC50 [6]: 14200 nM
- EC50 [7]: 65 nM

Binder: Ac-[αAllylPro]D[Cha][B5(4)]DDALFS[PyrS2″][Phe(2-Cl)][Bta]Q-NH2 (staple 1-4, 4-11) [I-1148]
- IC50 [5]: 50 nM
- IC50 [6]: 21500 nM
- EC50 [7]: 50 nM

Binder: Ac-[αAllylPro]D[tBuAla][B5(12)]D[Cit]AAFN[PyrS2][3Thi][Bta]-NH2 (staple 1-4, 4-11) [I-861]
- EC50 [10]: 40 nM
- IC50 [11]: 40 nM

Binder: Ac-[αAllylPro]N[Cha][B5(5)]DQ[Lys(iPr)]AFN[PyrS2″][Ala(4-thiazolyl)][Bta][hSer]-NH2 (staple 1-4, 4-11) [I-2071]
- IC50 [3]: 592 nM

Binder: Ac-[αAllylPro]D[tBuAla][B5(12)]DTAAFN[PyrS2][3Thi][Bta]-NH2 (staple 1-4, 4-11; also: later eluting HPLC peak (staple isomer)) [I-860]
- EC50 [10]: 61 nM
- IC50 [11]: 61 nM

Binder: Ac-[αAllylPro]D[tBuAla][B5(5)]D[5F3Me3COOHF]QAFL[PyrS2][3Thi][Bta]A-NH2 (staple 1-4, 4-11) [I-2211]
- IC50 [1]: 23 nM
- IC50 [2]: 12900 nM

Binder: Ac-[αAllylPro]D[tBuAla][B5]D[Phe(3-COOH)][Nle]GFL[PyrS2][Phe(2-Cl)][Bta]Q-NH2 (staple 1-4, 4-11) [I-1688]
- IC50 [8]: 21500 nM
- IC50 [9]: 59 nM

Binder: Ac-[αAllylPro]D[tBuAla][B5]D[TfeGA][Aib]AFT[PyrS2][Phe(2-Cl)][Bta]Q-NH2 (staple 1-4, 4-11) [I-1693]
- IC50 [8]: 4600 nM
- IC50 [9]: 10 nM

Binder: Ac-[αAllylPro]D[tBuAla][B5(4)]D[Phe(3-COOH)]AGFL[PyrS2(5)][Phe(2-Cl)][Bta]Q-NH2 (staple 1-4, 4-11) [I-1687]
- IC50 [8]: 18600 nM
- IC50 [9]: 42 nM

Binder: Ac-[αAllylPro]D[tBuAla][B5]D[TfeGA][Nle]GFT[PyrS2][Phe(2-Cl)][Bta]Q-NH2 (staple 1-4, 4-11) [I-1695]
- IC50 [8]: > 20000 nM
- IC50 [9]: 93 nM

Binder: Ac-[αAllylPro]D[tBuAla][B5(3)]D[Phe(3-COOH)]AAFL[PyrS2″][Phe(3-Ph)]FQ-NH2 (staple 1-4, 4-11) [I-2214]
- IC50 [1]: 1860 nM

Binder: Ac-[αAllylPro]D[tBuAla][B5(4)]D[Phe(3-COOH)]AAFL[PyrS2″][Phe(2-CF3)][Bta][dA]-NH2 (staple 1-4, 4-11) [I-2091]
- IC50 [3]: 49 nM

Binder: Ac-[αAllylPro]D[Cha][B5(4)]DDLAFT[PyrS2″][Phe(2-Cl)][Bta]S-NH2 (staple 1-4, 4-11) [I-1150]
- IC50 [5]: 12 nM
- IC50 [6]: 21400 nM
- EC50 [7]: 12 nM
